Source: patent US20210145878A1
Substitutions are numbered along the chain they refer to. Each block holds one binder with its values, some of them ahead of it.

Experiments:
[1] = molecular target: CD79b-AF647; assay: flow cytometry, CAR-transduced primary human T cells stained with recombinant human CD79b extracellular domain-AF647
[2] = molecular target: recombinant human CD79b isoform-2 (short) (human) (UniProt P40259); assay: SPR, Biacore 8k; scFv-Fc captured by anti-human Fc, CD79b as analyte; 1:1 Langmuir

CD79b-AF647, sequence (chain, as listed by the source limits assumed): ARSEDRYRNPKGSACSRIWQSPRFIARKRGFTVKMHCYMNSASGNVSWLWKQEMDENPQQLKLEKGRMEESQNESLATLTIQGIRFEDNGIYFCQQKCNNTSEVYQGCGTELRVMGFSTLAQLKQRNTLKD

aCD79b CAR+ (frequency of CAR+ cells) [1]: 0.048
B1: SN8 #51 (protein, part only; not given: hinge, transmembrane and signaling domains, part only)
CAR polypeptide, part: DIVLTQSPDSLAVSLGERATINCKASQSVDYEGDSFLNWYQQKPGQPPKLLIYAASNLESGVPDRFSGSGSGTDFTLTISSLQAEDVAVYYCQQSNEDPLTFGGGTKVEIKGGSEGKSSGSGSESKSTGGSQVQLVQSGAEVKKPGASVKVSCKASGYTFTGYWIEWVRQAPGQGLEWMGEILPGGGDTNYNQKFQGKVTFTRDTSTSTAYMELSSLRSEDTAVYYCARRVPVYFDYWGQGTLVTVSS

Kd [2]: 6.9 nM
B2: CD9W59 LH scFv-Fc (Fc fusion, not shown: a dimerising Fc or GST)
chain: B1 CAR polypeptide, part with E32D, A210V

Kd [2]: 11.5 nM
B3: CD9W23 LH scFv-Fc (Fc fusion, not shown: a dimerising Fc or GST)
chain: B1 CAR polypeptide, part with E32D, A171R
